Literature values as cited in PMC9079180.

Target: tau (Homo sapiens)

Hsp70, sequence (P0A6Z0 2-638): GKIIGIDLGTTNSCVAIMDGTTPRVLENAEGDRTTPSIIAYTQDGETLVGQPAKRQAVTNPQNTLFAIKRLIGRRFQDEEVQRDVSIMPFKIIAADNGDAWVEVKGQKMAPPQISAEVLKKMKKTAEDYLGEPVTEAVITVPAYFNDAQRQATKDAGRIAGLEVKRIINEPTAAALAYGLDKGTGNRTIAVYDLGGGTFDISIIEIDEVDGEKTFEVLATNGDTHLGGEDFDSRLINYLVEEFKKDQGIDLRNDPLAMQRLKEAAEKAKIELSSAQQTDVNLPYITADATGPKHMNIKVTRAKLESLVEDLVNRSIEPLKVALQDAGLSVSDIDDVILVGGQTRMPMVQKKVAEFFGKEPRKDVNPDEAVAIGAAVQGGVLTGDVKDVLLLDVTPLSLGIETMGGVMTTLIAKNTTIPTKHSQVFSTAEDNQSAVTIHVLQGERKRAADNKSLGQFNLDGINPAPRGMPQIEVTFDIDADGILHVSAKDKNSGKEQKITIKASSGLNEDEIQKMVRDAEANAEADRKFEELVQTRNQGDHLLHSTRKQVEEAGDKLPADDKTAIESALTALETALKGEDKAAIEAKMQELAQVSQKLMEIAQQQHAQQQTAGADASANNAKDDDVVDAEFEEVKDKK

Kd: 400 nM
Substance: Hsp70 (from UniProt P0A6Z0)
